Measurements as given in the nanobody polyreactivity screen of Harvey et al. (2022).

Test: yeast display, Sf9 membrane polyspecificity reagent, FACS + sequencing; frameworks hold sequencing errors
Method in brief: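 In a synthetic yeast display library (Saccharomyces cerevisiae BJ5465), nanobody expression was induced with galactose for 36–48 hours. FACS gates were set low and high (top ~1%) using anti-HA fluorescence for expression and streptavidin fluorescence for binding of the Sf9 membrane reagent. Each polyreactivity label is drawn from the gate of origin.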

| Sequence | polyreactivity (PSR sort gate) |
| --- | --- |
| QVQLVESGVGLVQAGGSLRLSCAASGSIFVYYAMGWYRPAPGKERELVAAINFRGGNTYYADSVKGRFTISRDNAKNTVYLQMNRLKPEDTAVYYCAADYRWKWIGGARYDYWGQGTQVTVSS | low polyreactivity |
| QVQLVESGGGLVQAGGSLRLSCAASGRIFAYYSMGWYRQAPGKERELVAAISRSGVSTYYADSVKGRFTISRDNAKNTVYLLMNSLKPEDTAVYYCAARWRSGFTSGDFWGQGTQVTVSS | low polyreactivity |
| QVQLVESGGGLVQAGGSLRLSCAASGSTFQTYAMGSYRPAPGKERELVAAISKTGASTYYADSVKGRFTISRDNAKNTVNLQMNSLKPEDTAVYYCAAGRYTSYYPRYYYWGQGTQVTVSS | high polyreactivity |
| QVQLVESGGGLVQAGRSLRLSCPASGRTVVYNSLGWYRQAPGKETEFVAAITRSRDSTYYADSVKGRFTISRDNASNPVYLEMNSLKPEDSAAYYCNAVSKRYWLMDYWGQGTQVTVSS | high polyreactivity |
| QVQLVESGGGLVQAGGSLRLSCAASGLIFNLNAMGWYSPAPGKEREFVATITGIGGSTYYADSVKGRFTISRDNAKNTVYLQMNSLKPEDTAVYYCAADAWFVPYNYWGQGTQVTVSS | low polyreactivity |
| QVQLVESGGGLVQAGGSLRLSCAASGRTFLQYGMGWYRQAPGKERELVAAITTSGGDTYYADSVKGRFTISRDNAKNTVYLQMNSQKPEDTAVYYCNAEPRYGTYDYWGQGTQVTVSA | low polyreactivity |
| QVQLVESGGGLVQAGGSLRLSCAASGRTFSPYMGWSRQAPGKERELVAAISKSGGRTYYADSVKWSFTISRDNAKNTVYLQMNSLQPEDTAVYYCATSGNNYYYALYGYWVQGTQVTVSS | low polyreactivity |
| QVQLVDSGGGLVQAGASLRLSCAASGSTFSSNVMGWYRQAPGKERELVAAITKTGGLTYYADSVKGRFTISRDNAKNTVYLNMNSLKPEDTSVYYCAAKSKRRGTTSVYYYWGQGTQVTVSS | high polyreactivity |
| QVQLVESGGCLVQAGGSLRLSCAASGRTFLANAMGWYRQAPGKERELVAAITWSGGRTNYADSVKGRFTISRDNAKNTVYLQMNSLKPEDTAVYYCAADIFYEQVVGGTDVGYHDFDYWGQGTQVTVSS | low polyreactivity |
| QVQLVESGGGLVQAGGSLRLSCAASGSIFVIYAMGWYRQAPGKERELVAAITYSGGSTYYADSVKGRFTISRDNAKNTVYLQMNSLKPEDTAVYYCAAVRDSRYYDYDYWGQGTQVTVSS | low polyreactivity |
| QVQLVESGGGLVQAGGSLRLSCAASGSIFPSYAMGWYRQAPGKERELVAAISRSAGSTYYADSVKGRFTISRDNAKNTVYLQMNSLKPEDTAVYYCAAEGYSSRYRYDYWGQGTQVTVSS | low polyreactivity |
| QVQLEESGGGLVQAGGSLRLSCAASGRISESNDRGWYRQAPGKERQLVAAISSSGGSTYYADSVKGRFTISRDTAKNTVYLQLNSLKPEDTAVYYCAREYIFSVYDYSTSYYYWGQGTQVTVSS | low polyreactivity |
| QVQLVESGGGLVQAGGSLRLSCAASGGTFRAYVMGWYRQAPGKERELVAAISRSGTRTYYADSVKGRFTISRDNAKNTVYLQMNSLKPEDTAVYYCAAAAKSWLFDYWGQGTQVTVSS | high polyreactivity |
| QVQLVESGGGLVQAGGSLRLSCAASGRIFGYNAMGWSRQAPGKERELGAAISWSGGSTFYADSVKGRFTISRDNAKNTVYLQMNSLKPEDTAVYYCAADSQDGYYYWGQGTQVTVSS | low polyreactivity |
| QVQLVESGGGLVQAGGSLRLSCAASGRIFGYYAMGWYRQAPGKERELVAAINSGSRTYYADSVKGRFTISRDNAKNTVYLQMNSLKPEDTAVYYCAARVRYPPYRSSDGQRGGYWGQGTQVTVSS | high polyreactivity |
| QVQLVESGGCLVQAGGSLRLSCAASGSTFENYAMGWYRPAPGKERELVATISIDGRTNYADSVKGRFTISRDNAKNTVFLQMNSLKPEDTGVYYCAARPYWRHRYDYWGQGTQVTVSS | low polyreactivity |
| QVHLVESGGGLVQAGGSLRLSCAASGLTFYSNAMRWYRQAPGKERELVARISTGGSTYADSVKGRFTISRDNAKNTVYLQMNSLKPEDTGVFYCAKLPPRGIDDEYWGQATQVTVSS | low polyreactivity |
| QVQLVESGGGLVQAGGSLRLNCAASGSTLARYAMGWYRQAPGKERELVAAITWSGVSTYYADSVKGRFTISRDNAKNTVYLQMISLKPEDTAVYYCNARIFRSPNPYDYWGEGTQVTVSS | high polyreactivity |
| QFQLEESGVGLVQAGGSLRLSCAASGFTFNVYAMGWYRQAPGKERELVAAIRWGAGSTYYADSVKGRFTISRDNAKNTVYLQMNSLKPEDTAVYYCAKDSGVWRYDHWGQGTQVTVSS | low polyreactivity |
| QVQLVESGGGLLQAGGSLRLSCAASGIIFSDYAMGRYRQAPRKERELVAAITSSGGSTYYADSVKGRFTISRDNAKNTVYLQMNSLKPEDPAVYYCAAQCYDYWYDYDYWGQGTQVTVSS | high polyreactivity |
| QVQLGDSGGGLVQAGGSLRLSCAASGFSIFTYAMGWYRQAPGKERELVAAITTGGSTNYADSVKGRFTISRDNAKNTVYLKMNSLKPEDTALYYCAALRVSVILLVRLDYWGQGTQVTVSS | low polyreactivity |
| QVQLEESVGGLVQAGGSLRLTCAASGSTLSYYSMGWYRQAPGKERELVARITRSGGRTYYADSVKGRFTISRDNEKNTVYLQINSLKPEDTGVYYCNKVAYYSRRMDYWGQGTLVTVSS | high polyreactivity |

| Sequence | polyreactivity (PSR sort gate) |
| --- | --- |
| QVQLVESGGGVVQAGGSLRLSCAASGSTLVVNGLGWYRQAPGKDRELVAAISWSGGTTYYADSVKGRFTISRDNAKNTVDLQMNSLKPEDTAVYYCAADSYTEVDYWGQGTQVTVSS | low polyreactivity |
| QVQLVESGGGLVQAGGSLRLSCAASGSTIYVNAMGWYIQAPGKERELVAAIRSSAGNTTYADSVKGRFTISRDNAKNTVYLQMNSLKPEVTAVYYCAADSRPYLRDYWGQGTQVTVSS | low polyreactivity |
| QDQLVESGGGLVQAGGNLRLSCAASGSIFSDYTIGWYRQAPGKERELVADITLSSGSTYYADSVKGRFTISRDNAKNTVYLQMNSLKPEDTAVYYCAADGWYYFRSGDFEYDYWGHGTQVTVSS | low polyreactivity |
| QVQLVESGGGLVQAGGRLRISCAASGRTFSHNTMGWYRQAPGKERELVAAITGSGASTYYADSVKGRFTISRDNAKNTVYLQMNSLKPEDTAVDYCAKVSRQSWDEYDTWGQGTQVTVSS | low polyreactivity |
| QVQLVESGGGLVQAGGSLRLSCAASGSTFSFYAMGRYRQAPGKERELVAAISSSGDGTYYADSVKGRFTISRDNAKKTVYLQMNSLKPEDTAVYYCATGSPSGDEWGMDYWGQGTQVTVSS | low polyreactivity |
| QVQLVESGGRLVQAGGSLRLSCAASGSIIAWYVLGWYRRAAGKERELVAGIDTSGGSTFYADSVMGRFTISRDIAKNTVYLQMNSLKTEATAVYYCAADTWYRGPWEFDYWGQGTQVTVSS | low polyreactivity |
| QVQLVESGGGLLQAGGSLPLSCAASGRIFHQYAMGWYRQAPGKERELVAAISKTGTRTYYADSVKGRFTISRDNAKNTVYFQINSLKPDDTAVYYCNALYWTVYSREYDYWGQATQVTVSS | high polyreactivity |
| QVQLEESGGGLFQAGGSLRLSCAASVSSYRSYARGWYRTATGKERELVAAISVSGGSTYYADSVKGRFTISRDNAKNTVFLQMNSLKPEDTAVYYCAASYVPSYAPGRYYYWGQGTQVTVSS | high polyreactivity |
| QVQLVESGGGLVQAGGSLRLSCAASGSLFQPNDRGWYRQAPGKERELVASIRGRGGDTYYADSVKGRFTISRDNAKNTVYLQMNSLKPEDTGGYDCAADYRWGQGTQVTVSS | low polyreactivity |
| QVQLVESGGGLVQAGGSLRLSCAASGYTFYKNTMGWYRQAPGKERELVARISRSGGSTYYADSVKGRFTISRDNAKNTVYLQMNSLKPEDTAVYYCAVRQGYRSGIYEYDYWGQGTQVTVSS | high polyreactivity |
| QVQLVESGGGLVQAGGSLRLSCAASGRIFYTNVMGWYRQAPGKERELVAAISTGGGRTYYADSVKGRFTISRDNAKNTVYLQMNSLKPEDTAVYYCAASGRYAIVWGDQYYGYYYWGQGTQVTVSS | high polyreactivity |
| QVQLVESGGGLVQAGGSLRLSCAASGSTFGPNAMGWYRQAPGNERELVAAITWSGDSTYYADSVKGRFTISRDNAKNTVYLQMNSLKPEDTAVYYCNTDRNVWYAGYDYWGQGTQVSVSS | low polyreactivity |
| QVQLVESGGGLVQAGGSLRLSCAASGSIFDGYAMGWYIQAPGKDRELVAAISGSGGITYYADSVKGRFTISRDNAKNTVYLPMNSLKPEDTAVYYCAADYSWYAGYGYWGQGTQVTVSS | low polyreactivity |
| QVQLVESGGGLVQAGGSLRLSCAASGSTFYSYAMGWYRQAPGKERELVAAISSGGSTYYADSVKGRFTISRDNAKNTGYLQMNSLKPEDTAVYYCAAKRRAKTGYRYDYWGQGTQVTVSS | high polyreactivity |
| QVQLVESGGGLVQAGGSLRLSCAASGRTFYRYAMGWYRQAPGKEREFVARITTSGGSTYYADSVKGRFTISRDNAKNTVYLEMNSLKPEDTAVYYCAASAPYIYYWGQGTQVTVSS | high polyreactivity |
| QVQLVESGGGLVQAGGSLRLSCAASGRTFDVYAMGWYRQAPGKERELVATISYRSARTYYADSVKGRFTISRDNAKNTVYLQMNSLKPEDTAVYYCAAYFETWHGFGYWGQGTQVTVSS | high polyreactivity |
| QVQLVESGGGLVQAGGSLRLSCAASGSTFYTYAMGWYRQAPGKERELVAAISGSGGRTYYADSVKGRFTISRDNAKNTVYLQMNSLKPEDTAVYYCAAYSYRKHATGSRDMDYWGQGTQVTVSS | high polyreactivity |
| QVQLVESGGGLVQAGGSLRLSCAASGRTFVFNDMGWYRQAPGKERELVAAITKNGGSTYYADSVKGRFTISRDTAKNTVYLHMNSLKPEDTAVYYSNASFQYYDYWGQGTQVTVSS | low polyreactivity |
| QDQLVESGGGLVQAGGSLRLSCAASGSTDYTYDMGWYRQAPGKERELVASITSGGSTNYADSVKGRFTISRDNAKNTVYFQMNSVKPQDTAVYYCAVGTYTIYSGTLYDYKYYWGQGTQVTVSS | low polyreactivity |
| QVQLVESGGGLVQAGGSLRLSCAASGFTFVNYAIGWYRQAPGKERELVAAIRRSGSRTYYADSVKGRFTISRDNAKNTVYLQMNSLKPEDTAVYYCAAVWYRLYGYWGQGTQVTVSS | low polyreactivity |
| QVQLVESGGGLVQAGGSLRLSCAASGSTFYLNAMGWYRQAPGKEREFVAAIRGGGTSTRYADSVKGRFTISRDNAKNTVYLQMNSLKPEDTAVYFCAAPRVVYRGDYWGQGTQVTVSS | high polyreactivity |
